The target of the experiment is SARS-CoV-2 RBDWT, His-tagged, soluble (SARS-CoV-2) (UniProt P0DTC2). Nature of the experiment: ELISA.

One may read the IC50 as the point on the concentration scale where inhibition reaches its midpoint. Low readings indicate greater potency, high ones weaker potency. For “soluble ACE2 (sACE2), commercially available, His-tagged (domain or fragment)”, the IC50 amounted to 179 nM. This lies in the sub-micromolar range.

Values taken from PMC10293748.
